Measured values from patent US20240408220A1, “PEPTIDE DENDRONS AND METHODS OF USE THEREOF” (ASTRAZENECA AB, priority 2021, published 2024).
Where no end group is shown, it is not given here. [ ]: non-standard residue; d: D form. Cit = NC(=O)NCCC[C@H](N)C(=O)O

Key:
[1] = Anionic stability assay (dextran sulfate dissociation of NPs); assay type: physicochemical
Experimental: Dextran sulfate (DS) solutions were prepared in 20 mM HEPES and added to NP solutions (prepared as in Example 4) so the final DS concentration was between […] and DNA concentration was 10 μg/mL. After a 15-minute decomplexation period, 15 μl of each formulation was added to a 2% E-gel with ethidium bromide and run for 10 minutes. pDNA release was calculated using ImageJ (NIH, Bethesda, Maryland) and the results shown in FIG. 2A where the percent of intact nanoparticles Is plotted as a function of DS concentration.

[2] = biological target: Cathepsin-B (Homo sapiens, UniProt P07858); experiment: Enzymatic DNA release from NPs by cathepsin-B; assay type: biochemical; details: relative to non-modified PD3 and all PD2 formulations
Experimental: NPs prepared as in Example 4 but in 8 mM L-Cysteine HCl buffer pH 6 at a final DNA concentration of 0.1 μg/μl. Cathepsin-B stock solution (60 units/mL) was subsequently added. Cat-B NP solutions were incubated at 37° C. for up to 4 hours. Aliquots were removed at the appropriate time points and analysed via agarose gel electrophoresis to visualize released DNA. DNA dilutions were prepared at different concentrations as a control and likewise added to the same agarose gel for subsequent quantification using bio-rad intensity software analysis and the results shown in FIG. 2B.

| Substance | dextran sulphate concentration above which DNA was readily released [1] | DNA release in response to cathepsin-B activity [2] |
| --- | --- | --- |
| ({LEU}{ARG}8{LYS}{LEU}{ARG}4{LYS}{LEU}{ARG})2{LYS}{GLY}{VAL}{CIT}{GLY}{GLY}{SER}{CYS} (chain 1 LRKLRKLRKGV[Cit]GGSC-NH2; chain 2 LRKLRKLR; chain 3 LRKLR; also: branched dendron: side chains of K3, K6, K9 (chain 1) and K3, K6 (chain 2) amide-linked to other sequences, chain 2 C-terminus linked to another sequence) [PD1, comparison peptide dendron without modified lysines] | exceeding 50 μg/mL |  |
| ({LYS(M)}{LEU}{ARG})8({LYS}{LYS(M)}{LEU}{ARG})4({LYS}{LYS(M)}{LEU}{ARG})2{LYS}{GLY}{VAL}{CIT}{GLY}{GLY}{SER}{CYS} (chain 1 K(2‑morpholinoacetyl)LRKK(2‑morpholinoacetyl)LRKK(2‑morpholinoacetyl)LRKGV[Cit]GGSC-NH2; chain 2 K(2‑morpholinoacetyl)LRKK(2‑morpholinoacetyl)LRKK(2‑morpholinoacetyl)LR; chain 3 K(2‑morpholinoacetyl)LRKK(2‑morpholinoacetyl)LR; also: branched dendron: side chains of K4, K8, K12 (chain 1) and K4, K8 (chain 2) amide-linked to other sequences) [PD3(M)] |  | readily released DNA in response to cathepsin-B activity |
